Results: PMC7717681, “Biochemical and structural characterisation of a protozoan beta-carbonic anhydrase from Trichomonas vaginalis” (Journal of Enzyme Inhibition and Medicinal Chemistry, 2020)

Target: the molecule itself
Experiment: SEC-MALS; SEC combined with static and dynamic light scattering (SEC-SLS/DLS, right-angle light scattering) and a SEC standard curve; Superdex 200 5/150, 50 mM NaH2PO4, 500 mM NaCl, pH 8, 20 °C; after His-tag removal

B1: beta-carbonic anhydrase from Trichomonas vaginalis (TvaCA1) (enzyme)
chain: MSQLELITSANQAFLEANPELTKLNKAPQRHIAIVTCMDTRLVNFAEDAIGVKRGEATVIKAAGNGIWTTGLSDIVVSLLVSIYELGVQEIFIMGHECCGMTHASTDSLGAQMLKSGIKPEDIEKFKSDLSKWVDDFKDPIDNIKNSVRCVRENPLIPKNIPIHGLLIHPDTGKVTTIINGY
notes: TvaCA1, beta-carbonic anhydrase of Trichomonas vaginalis, gene TVAG_005270, UniProt A2ENQ8; Zinc metalloenzyme; The His-tag was removed by thrombin at an LVPRGS site; also called β-CA from T. vaginalis; source: E. coli BL21 Star (DE3), purified (Ni2+-NTA, His-tag removed by thrombin, second Ni2+-NTA; SEC in addition for crystallisation); not shown: His6, N-terminal, cleaved
  stoichiometry N: 2
